# From the nanobody polyreactivity screen of Harvey et al. (2022)
# Experiment: yeast display, Sf9 membrane polyspecificity reagent, FACS + sequencing; frameworks hold sequencing errors
# Outline: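 After 36–48 hours of galactose induction, yeast (Saccharomyces cerevisiae BJ5465) displaying a synthetic nanobody library were stained at 4 °C for 1 hour with 10% biotinylated, detergent-solubilized Sf9 membrane reagent. Streptavidin microbeads enriched the stained cells before FACS sorting into low and high (top ~1%) gates on anti-HA and streptavidin fluorescence. Each clone's polyreactivity label reflects its gate of origin.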
row,Sequence,polyreactivity (PSR sort gate)
1,QVQLVESGGGLVQAGGSLRLSCAASGRIFRHYAMGWYRQAPGKERELVAAINWNGGSTYYADSVKGRFTISRDNAKNTVYLQMNSLKPEDTAVYYCAARYRYVRGMDYWGQGTQVTVSS,high polyreactivity
2,QVQLVESGGGLVQAGGSLRLSCAASGRIFRKNVMGWYRQAPGKERELVAAITTRGGSTYYADSVKGRFTISRDNAKNTVYLQMNSLKPEDTAVYYCATRVQWNSRYDYWGQGTQVTVSS,high polyreactivity
3,QVQLVESGGGLVQAGGSLRLSCAASGRIFRKYAMGWSRQAPGKERELVAAISVGGGSTRYADSVKGRFTISRDNAKNTVYLQMNSLKDEDTAVYYCAADWAYYVASYLYYTFDYWGQGTQVTVSS,low polyreactivity
4,QVQLVESGGGLVQAGGSLRLSCAASGRIFRLYAMGWYRQAPGKERELVAAIRASGGNTYYADSVKGRFTISRDNAKNTVYLQMNSLKPEDSAVYYCAADYWSRYYTVPEWYNYWGQGTQVTVSS,high polyreactivity
5,QVQLVESGGGLVQAGGSLRLSCAASGRIFRLYAMGWYRQAPGKERELVAAISKSGGSTYYADSVKGRFTFSRDNAKNTVYLQMNSLKPEDTAVYYCAADYRTHGGYEGTFDYWGQGTQVTVSS,low polyreactivity
6,QVQLVESGGGLVQAGGSLRLSCAASGRIFRLYAMGWYRQAPGKERELVAAISKSGGSTYYADSVKGRFTISRDTATNTVYLQMNSLKPEDTAVYYCAADYRTHGGYEGTFDYWGQGTQVTVSS,low polyreactivity
7,QVQLVESGGGLVQAGGSLRLSCAASGRIFRNYAMGWYRQAPGKERELVAAISGNGGNTYYADSVKGRFTISRDNAKNTVYLQMNSLKPEDTAVYYCNAYHWLYSYRYSRTYDYWGQGTQVTVSS,high polyreactivity
8,QVQLVESGGGLVQAGGSLRLSCAASGRIFRPYAMGWYRQAPGKEREFVAAITQSGGITSYADSVKGRFTISRDNAKNTVYLQMNRLKPEDTAVYFCATTSRYTRSHYDWYDYWGQGTQVTVSS,low polyreactivity
9,QVQLVESGGGLVQAGGSLRLSCAASGRIFRPYAMGWYRQAPGKEREFVATIRFTTGRTYYADSVKGRFTISRDNAKNTVYLQMNSLKPEDTAVSYFAADFAFVNYAKISYTTHDYWGQGTQVTVSS,high polyreactivity
10,QVQLVESGGGLVQAGGSLRLSCAASGRIFRPYAMGWYRQAPGKERELVARINGSGGSTYYADSVKGRFTISRDTAKNTVYFQMNSLKPEDTAVYYCNVRRIIRYLGYTHTKISWLDYWGQGTQVTVSS,high polyreactivity
11,QVQLVESGGGLVQAGGSLRLSCAASGRIFRQNVMGWYRQAPGKERELVAGISRSGSGTRYADSVKGRFTISRDNAKNTVYLQMNSLKPEDTAVYYCNTLVPFSTWRYGYWGQGTQVTVSS,high polyreactivity
12,QVQLVESGGGLVQAGGSLRLSCAASGRIFRQYTMGWNRQAPGKERELVAAITGTRGSTYYADSVKGRFTISRDNAKNTVYLQMNSLKPVDTAVYSCDADYSARYGYWGQGTQVTVSS,high polyreactivity
13,QVQLVESGGGLVQAGGSLRLSCAASGRIFRRNAMGWYRPAPGKERELVAGITWSGGTTYYADSVKGRFTISRDNAKNTVYLQMNSLKPEDTAVYYCNAGRSKWLSRYDYWGQGTQVTVSS,high polyreactivity
14,QVQLVESGGGLVQAGGSLRLSCAASGRIFRRNAMGWYRQAPGKEREFVAAITSSGDSTNYADSVKGRFTISRDNAKNTVYLQMNSLKPEDTAVYYCAADWARSALQGFYYWGQGTQVTVSS,low polyreactivity
15,QVQLVESGGGLVQAGGSLRLSCAASGRIFRRNAMGWYRQAPGKEREFVATITSGGSTFYADSVKGRFTISRDNAKNTVYLQMNSLKPEDTAVYYCAAPSYNTPFHTPNYSWGQGTQVTVSS,low polyreactivity
16,QVQLVESGGGLVQAGGSLRLSCAASGRIFRRNAMGWYRQAPGKERELVAAITSSGGNTYYADSVKGRFTISRDNAKNTVYLQMNSLKPEDTAVYYCAAELRPYITYDGPRKKFYYWGQGTQVTVSS,high polyreactivity

row,Sequence,polyreactivity (PSR sort gate)
1,QVQLVESGGGLVQAGGSLRLSCAASGRIFRRNTMGWSRPAPGTERELVAAITSRGGSTYYADSVKGRFTISRDNAKNTVYLQMNSLKPADTAVYYCNTRVVPEIYDYWGQGTQVTVSS,high polyreactivity
2,QVQLVESGGGLVQAGGSLRLSCAASGRIFRRYAMGCYIQAPGKERELVAGITGSGTSTYYADSVKGRFTISRDNAKNTVYLQMNSLKPEDTAVYYCAADRGRGYRYNYWGQGTQVTVSS,high polyreactivity
3,QVQLVESGGGLVQAGGSLRLSCAASGRIFRRYAMGWYRQAPGKERELVAAISSRGGSTYYADSVKGRFTISRDNAKNTVYLQMNSLKPEDTAVYYCNADVSASEYDYWGQGTQVTVSS,high polyreactivity
4,QVQLVESGGGLVQAGGSLRLSCAASGRIFRRYAMGWYRQAPGKERELVAAITRSGGSTYYADSVKGRFTISRDNAKNTVYLQMNSLKPEDTAVYYCNAPSSLGTDYDYWGQGTQVTVSS,high polyreactivity
5,QVQLVESGGGLVQAGGSLRLSCAASGRIFRRYAMGWYRQAPGKERELVASISSGGSTNYADSVNGRFTISRDNAKNTVYLQMNSLKPEDTAVYYCAASYPSIYYYRYDYWGKGTQVTVSS,high polyreactivity
6,QVQLVESGGGLVQAGGSLRLSCAASGRIFRRYAMGWYRQAPGKERELVATISRGGSNTSYADSVKGRFTISRDNAKNTVYLQMNSLKPEDSAVYYCAKGSVRYYVGFDYWGQGTQVTVSS,high polyreactivity
7,QVQLVESGGGLVQAGGSLRLSCAASGRIFRRYARGWYRQAPGKERELVATISRGGSNTSYADSVKGRFTISRDNAKNTVYLQMNSLKPEDTAVYYCAKGSVRYYVGYDYWGQGTQVSVSS,high polyreactivity
8,QVQLVESGGGLVQAGGSLRLSCAASGRIFRRYTIGWYRQAPGKEWELVAGISSGGSTKYADSVKGRFTISRDNAKNTVYLQMNSLKPEDTAVYYCNRRCPIYGSRFGYYYWGQGTQVTVSS,high polyreactivity
9,QVQLVESGGGLVQAGGSLRLSCAASGRIFRSNAMGWYRQAPGKERELVAAISSNGGSTYYADSVKGRFTISRDNAKNPVYLQMNSLKPEDTAVYYCAARVYYPVRYGYWGQGTQVTVSS,high polyreactivity
10,QVQLVESGGGLVQAGGSLRLSCAASGRIFRSYAMGWYRQAPGKDRELVAAISSGDTTNYADSVKGRFTISRDNAKNTVYLQMNSLKPEDTAVYYCAAGFYYRGGYIQYEMNYWGQGTQVTVSS,high polyreactivity
11,QVQLVESGGGLVQAGGSLRLSCAASGRIFRSYAMGWYRQAPGKERELVAAINYGGTSTYYADSVKGRFTISRDNAKNTVYLQMNSLKPEDTAVYYCAARRPTSPRRYESRGQGTQVTVSS,high polyreactivity
12,QVQLVESGGGLVQAGGSLRLSCAASGRIFRSYAMGWYRQAPGKERELVAAISQRGGRTYYADSVKGRFTISRDNAKNTVYLQMNSLKPEDTAVYYCAKSNPKLGYYYLQGDLYDYWGQGTQVTVSS,low polyreactivity
13,QVQLVESGGGLVQAGGSLRLSCAASGRIFRSYAMGWYRQAPGKERELVAAISQRGGSTYYADSVKGRFTISRDNAKNTVYLQMNSLKPEDTAVYYCNKERRNSGKFDYWGQGTQVTVSS,high polyreactivity
14,QVQLVESGGGLVQAGGSLRLSCAASGRIFRSYAMGWYRQAPGKERELVAAITSGGSTNYADSVKGRFTISRDNAKNTVYLQMNSLKPEDTAVYYCNADRWKSGYWRYDYWGQGTQVTVSS,low polyreactivity
15,QVQLVESGGGLVQAGGSLRLSCAASGRIFRTNAMGWYRQAPGKERELVAAITFSGGGTYYADSVKGRFTISRDNAKNTVYLQMNSLKPEDTAVYYCATDWYYEYYYWGQGTQVTVSS,low polyreactivity
